# Measured values reported in PMC9381478 (Cellular and Molecular Life Sciences: CMLS, 2022).
# T1: Spd1 (full-length) (S. pombe, UniProt Q10585 1-124)
# T1 construct: Spd1 of S. pombe; also called 15N-Spd1
# T1 sequence (looked up): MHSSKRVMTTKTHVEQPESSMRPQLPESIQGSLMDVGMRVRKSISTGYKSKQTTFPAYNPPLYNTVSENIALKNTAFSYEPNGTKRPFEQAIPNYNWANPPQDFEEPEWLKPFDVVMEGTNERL
# B1: S. pombe ubiquitin with an N-terminal 6xhistidine-tag, TEV-cleavage site and an N-terminal free cysteine (natural protein)
# chain: not shown
# notes: ubiquitin of S. pombe, the cut product of its precursors; An added free cysteine stands N-terminal of ubiquitin together with the tag and the TEV linker; Used 15N-labelled or unlabelled; also called 15N-labeled ubiquitin; 15N-ubiquitin; source: E. coli BL21(DE3), purified (nickel Sepharose, SEC); not shown: His6, N-terminal, kept; TEV cleavage site, N-terminal, kept
# Molecular target: T1, Spd1 (full-length)
# Assay: NMR titration; 30 µM 15N-Spd1 with 560 µM ubiquitin added; CSPs mapped on Spd1
# Conditions: both partners purified
row,Binder,binding result
1,B1,binds

# Molecular target: B1
# Assay: NMR titration; 100 µM 15N-ubiquitin, unlabelled peptide or protein added or titrated (peptides to 1 mM, WT Dss1 peptide to 5 mM); 20 mM NaH2PO4, 150 mM NaCl, 5 mM TCEP, pH 7.5; CSPs of 1H-15N-HSQC, global fit to a one-site model
# Conditions: both partners purified
row,Binder,Kd [µM]
1,"Ac-DDTLWWEDDWWDDED-NH2 (PepDW with the two asparagines of the core substituted with aspartates; also called DWD peptide; source: synthetic peptide, bought: TAG Copenhagen) [PepDWD]",600 ± 30
2,"Ac-DLWENNWDLWENNWD-NH2 (core motif WENNW of S. pombe Dss1 (O14140) repeated; also called double motif; Pep43 (as soluble peptide); source: synthetic peptide, bought: TAG Copenhagen) [PepDM]",1300 ± 120
3,"Dss1 N71C (mentioned as ""Dss1 WT"") (natural protein, S. pombe, UniProt O14140 1-71, looked up, Dss1 (deleted in split hand/split foot 1) of S. pombe; Used unlabelled, 15N- or 13C,15N-labelled; also called full-length Dss1; WT Dss1; source: E. coli BL21(DE3), purified (nickel Sepharose, ULP1 cleavage, reversed phase); not shown: His6-SUMO, N-terminal, cleaved) MSRAALPSLENLEDDDEFEDFATENWPMKDTELDTGDDTLWENNWDDEDIGDDDFSVQLQAELKKKGVAAC",380 ± 40
4,"Ac-DDTLWWENNWWDDED-NH2 (UBS1 of S. pombe Dss1 (O14140) with two extra tryptophans; also called double tryptophan; Pep42 (as soluble peptide); source: synthetic peptide, bought: TAG Copenhagen) [PepDW]",1200 ± 90
5,"Ac-DLWEDDWDLWEDDWD-NH2 (PepDM with the asparagines of the core substituted with aspartates; also called DMD peptide; source: synthetic peptide, bought: TAG Copenhagen) [PepDMD]",480 ± 40
6,"Ac-GDDTLWENNWDDEDI-NH2 (also called WT Dss1 peptide; UBS1 from Dss1; source: synthetic peptide, bought: TAG Copenhagen) [wild-type Dss1 peptide]",3000 ± 200
